Experiments:
[1] = biological target: HMGB1 (high mobility group box 1); assay: HMGB1 ELISA (as in Liu et al. 2009)
[2] = biological target: HMGB1 (high mobility group box 1); assay: cell-based or functional assay
S100B [3] = assay: BIAcore SPR, sRAGE amine-coupled to CM5 chip, S100B as analyte, steady state model
[4] = biological target: HMGB1 (high mobility group box 1); assay: BIAcore SPR, sRAGE amine-coupled to CM5 chip, HMGB1 as analyte, 1:1 Langmuir model
S100B [5] = assay: cell-based or functional assay

HMGB1 (high mobility group box 1), sequence (P09429 whole entry): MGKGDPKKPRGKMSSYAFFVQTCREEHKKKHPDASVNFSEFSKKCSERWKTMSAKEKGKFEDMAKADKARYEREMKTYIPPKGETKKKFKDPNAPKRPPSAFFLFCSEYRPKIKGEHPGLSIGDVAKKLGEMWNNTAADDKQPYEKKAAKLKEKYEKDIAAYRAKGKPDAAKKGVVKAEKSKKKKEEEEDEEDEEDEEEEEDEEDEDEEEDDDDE
sRAGE^CHO(desialylated), sequence (Q15109 other isoform, or with tags, fused parts or gaps): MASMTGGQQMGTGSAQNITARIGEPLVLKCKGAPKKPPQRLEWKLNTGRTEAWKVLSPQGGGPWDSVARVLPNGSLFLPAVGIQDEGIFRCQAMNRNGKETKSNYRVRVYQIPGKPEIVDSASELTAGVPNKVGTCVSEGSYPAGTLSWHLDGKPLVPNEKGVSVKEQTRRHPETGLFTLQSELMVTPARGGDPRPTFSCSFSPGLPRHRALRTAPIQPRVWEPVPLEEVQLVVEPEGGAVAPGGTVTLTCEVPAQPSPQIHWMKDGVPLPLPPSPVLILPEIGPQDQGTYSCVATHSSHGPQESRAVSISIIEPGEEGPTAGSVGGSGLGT
sRAGE^CHO (human T7-Gly-Ser-RAGE (23-340) polypeptide produced in CHO-CD14 cells), sequence (Q15109 other isoform, or with tags, fused parts or gaps): as above
sRAGE^sf9 (human T7-sRAGE produced in baculovirus-infected sf9 insect cells), sequence (Q15109 23-340, tags or fused parts left off): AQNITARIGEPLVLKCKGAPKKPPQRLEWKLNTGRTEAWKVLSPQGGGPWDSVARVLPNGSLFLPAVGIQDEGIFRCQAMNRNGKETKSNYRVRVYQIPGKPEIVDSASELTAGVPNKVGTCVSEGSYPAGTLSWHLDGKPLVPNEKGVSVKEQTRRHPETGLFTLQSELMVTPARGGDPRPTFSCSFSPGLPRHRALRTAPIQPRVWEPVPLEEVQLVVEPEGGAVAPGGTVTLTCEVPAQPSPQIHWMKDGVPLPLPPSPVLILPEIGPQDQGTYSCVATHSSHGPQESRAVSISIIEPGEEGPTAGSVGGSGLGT
S100B, sequence (D3DSN6 whole entry): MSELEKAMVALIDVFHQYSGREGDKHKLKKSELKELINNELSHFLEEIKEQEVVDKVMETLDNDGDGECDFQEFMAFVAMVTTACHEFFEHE

Substance | Kd [1] [nM] | fold of the dissociation constant (Kd) against wild-type sRAGE [1] [fold] | inhibition of HMGB1-induced NF-κB activity (luciferase reporter, HEK293-RAGE cells; 100 nM ligand, 100 nM sRAGE) [2] [%] | Kd (S100B [3]) [nM] | Kd [4] [nM] | inhibition of s100B-induced NF-κB activity (luciferase reporter, HEK293-RAGE cells; 100 nM ligand, 100 nM sRAGE) (S100B [5]) [%]
sRAGE^CHO(N25T/N81T) (from UniProt Q15109 26-340) (receptor) | 521 | 10 | 0.3 |  |  | 
sRAGE^CHO (human T7-Gly-Ser-RAGE (23-340) polypeptide produced in CHO-CD14 cells) (from UniProt Q15109 23-340) (receptor) | 49.5 |  | 58.6 | 90.5 | 13.3 | 40.2
sRAGE^sf9 (human T7-sRAGE produced in baculovirus-infected sf9 insect cells) (from UniProt Q15109 23-340) (receptor) |  |  | 19.7 | 32 |  | 20.4
sRAGE^CHO(desialylated) (from UniProt Q15109 23-340) (receptor) |  |  | 25.8 | 25.3 |  | 18

Reference: patent publication US20150051136A1
